In patent publication US12606635B2, “Glypican-2-binding moieties, chimeric antigen receptors and uses thereof” (Nanjing Legend Biotech Co., Ltd., priority 2020, dated 2026):

Key:
IMR-32 = test: IFNγ release in co-culture with IMR-32; type: cell-based, human; settings: Example 7, co-culture with IMR-32, FIG. 8D-8F
Source text: (§1) In addition to the cytotoxicity data above, supernatants from the in vitro co-culture assays were also collected to assess CAR T cells-induced cytokine release, e.g., release of interferon gamma (i.e., IFNγ), as another indicator of cytotoxicity, was quantified using a HTRF human IFNγ AlphaLISA kit (Perkin Elmer, #62HIFNGPEH) per manufacturer's instruction. […] No significant cytokine release were detected against GPC2-negative cell line A-431.
(§2) Supernatants from the in vitro co-culture assays were collected to assess CAR T cells-induced cytokine release, e.g., interferon gamma (i.e., IFNγ) release as described in Example 6. […] IFNγ was not induced in GPC2-negative A-431 cells. […] Cytokine release data was consistent with the in vitro cytotoxicity data.

SH-SY5Y [1] = test: IFNγ release in co-culture with SH-SY5Y; type: cell-based, human; settings: for IFNγ release: Example 7, co-culture with SH-SY5Y, FIG. 8D-8F
Source text: as §1, §2

[2] = tested on: neuroblastoma SH-SY5Y xenograft; type: in vivo, NCG mice; settings: mouse, in vivo
Description: A single dose of untransduced T cells (10×10^6) or CAR T cells (5×10^6) was administered intravenously to tumor engrafted mice 9 days after tumor inoculation (FIG. 9A). […] At the end of obversion, 100% of monovalent CAR T cells (CAS70950VH6-BBz, CAS72669VH6-BBz) and 80% of multi-valent CAR T cells (CAS70950VH6-AS71529VH6-BBz) treated mice were alive (FIG. 9A). At day 42 post treatment, 2/5 mice (40%) treated with CAS72669VH6-BBz expressing CAR T cells were tumor-free and 3/5 mice (60%) treated with CAS70950VH6-AS71529VH6-BBz expressing CAR T cells were tumor-free without recurrence. […] The data highlighted the superiority of VHH-based CAR T cells in tumor regression and protection of mice from disease progression.
Moreover, the expansion and persistence of CAR T cells in vivo are also considered as critical predictors of durable clinical tumor regression in patients with cancer. […] Average 5.00±6.42% of CAR T cells were found in the peripheral blood of NCG mice treated with 5×10^6 CAS70950VH6-AS71529VH6-BBz CAR T cells, whereas less than 1% CAR T cells were detected in CAS70950VH6-BBz, CAS72669VH6-BBz and CAS71529VH6-BBz expressing CAR T groups. Expansion of CAR T cells in the CAS70950VH6-AS71529VH6-BBz group was inversely correlated with tumor size over time.

SH-SY5Y [3] = test: Serial challenge assay, CAR Ts with different co-stimulatory domains; type: cell-based, human; settings: for CAR positive T cells percentage: serial SH-SY5Y challenge, FIG. 14B
Source text: To evaluate the persistence of GPC2 CAR T cells, exemplary CAR T cells were selected and tested in the serial challenge assay. Briefly, 4×10^5 SH-SY5Y cells and 1.33×10^5 CART cells transduced with GPC2-BBz, GPC2-CD28z, GPC2-CD27z, GPC2-CD2z, GPC2-ICOSz or GPC2-OX40z lentiviral vectors were co-cultured in 12 well plates using fresh growth medium without IL-2 (E:T ratio=1:3). Cells were harvested after three days co-culture and samples were taken for cell counting using AOPI and T cell quantified by FACs. CAR T cells were replated with fresh SH-SY5Y cells at a 1:2 E:T ratio in growth medium without IL-2 to start the next round of tumor co-culture. Samples were taken for cell counting and T cell quantification at the end of each challenge every three days. GPC2-BBz served as a positive control while the untransduced T cell (UnT) was used as a negative control.

B1: CAS71529VH6-BBz: humanized VHH anti-GPC2 CAR (4-1BB, CD3ζ), SEQ ID NO: 223; tested as CAR T cells (protein)
chain: MALPVTALLLPLALLLHAARPEVQLVESGGGLVQPGGSLRLSCAVSEYRYSSRYCMGWFRQAPGKGREGVAAIDSNGSADYVDSVKGRFTISKDNSKNTLYLQMNSLRAEDTAMYYCAADHLAYDCYSGATSVFRYWGQGTLVTVSSTTTPAPRPPTPAPTIASQPLSLRPEACRPAAGGAVHTRGLDFACDIYIWAPLAGTCGVLLLSLVITLYCKRGRKKLLYIFKQPFMRPVQTTQEEDGCSCRFPEEEEGGCELRVKFSRSADAPAYKQGQNQLYNELNLGRREEYDVLDKRRGRDPEMGGKPRRKNPQEGLYNELQKDKMAEAYSEIGMKGERRRGKGHDGLYQGLSTATKDTYDALHMQALPPR
modifications: expressed in CAR T cells; CAS71529VH6-BBz
- IFNγ release (IMR-32): high levels of IFNγ
- IFNγ release (SH-SY5Y [1]): high levels of IFNγ
- percentage of CAR T cells in peripheral blood [2]: less than 1%

B2: GPC2-OX40z: SEQ ID NO:252, GPC2 CAR T comprised OX40 and CD3 ζ intracellular signaling domains (protein)
chain: MALPVTALLLPLALLLHAARPEVQLVESGGGLVQPGGSLRLSCAISEFTYKNTCVGWFRQAPGKGREGVAAIDSDGNTNYVDSVKGRFTISQDNSKNTVYLQMNSLRAEDTAMYYCAAGAYCGRLLLWIGNYAYWGQGTLVTVSSTTTPAPRPPTPAPTIASQPLSLRPEACRPAAGGAVHTRGLDFACDVAAILGLGLVLGLLGPLAILLALYLLRRDQRLPPDAHKPPGGGSFRTPIQEEQADAHSTLAKIRVKFSRSADAPAYKQGQNQLYNELNLGRREEYDVLDKRRGRDPEMGGKPRRKNPQEGLYNELQKDKMAEAYSEIGMKGERRRGKGHDGLYQGLSTATKDTYDALHMQALPPR
modifications: expressed in CAR T cells; GPC2-OX40z
- CAR positive T cells percentage (SH-SY5Y [3]): gradual decline

B3: GPC2-CD27z: SEQ ID NO: 249, GPC2 CAR T comprised CD27 and CD3 ζ intracellular signaling domains (protein)
chain: MALPVTALLLPLALLLHAARPEVQLVESGGGLVQPGGSLRLSCAISEFTYKNTCVGWFRQAPGKGREGVAAIDSDGNTNYVDSVKGRFTISQDNSKNTVYLQMNSLRAEDTAMYYCAAGAYCGRLLLWIGNYAYWGQGTLVTVSSTTTPAPRPPTPAPTIASQPLSLRPEACRPAAGGAVHTRGLDFACDILVIFSGMFLVFTLAGALFLHQRRKYRSNKGESPVEPAEPCHYSCPREEEGSTIPIQEDYRKPEPACSPRVKFSRSADAPAYKQGQNQLYNELNLGRREEYDVLDKRRGRDPEMGGKPRRKNPQEGLYNELQKDKMAEAYSEIGMKGERRRGKGHDGLYQGLSTATKDTYDALHMQALPPR
modifications: expressed in CAR T cells; GPC2-CD27z
- CAR positive T cells percentage (SH-SY5Y [3]): gradual decline

B4: GPC2-CD28z: SEQ ID NO: 248, GPC2 CAR T comprised CD28 and CD3 ζ intracellular signaling domains (protein)
chain: MALPVTALLLPLALLLHAARPEVQLVESGGGLVQPGGSLRLSCAISEFTYKNTCVGWFRQAPGKGREGVAAIDSDGNTNYVDSVKGRFTISQDNSKNTVYLQMNSLRAEDTAMYYCAAGAYCGRLLLWIGNYAYWGQGTLVTVSSIEVMYPPPYLDNEKSNGTIIHVKGKHLCPSPLFPGPSKPFWVLVVVGGVLACYSLLVTVAFIIFWVRSKRSRLLHSDYMNMTPRRPGPTRKHYQPYAPPRDFAAYRSRVKFSRSADAPAYKQGQNQLYNELNLGRREEYDVLDKRRGRDPEMGGKPRRKNPQEGLYNELQKDKMAEAYSEIGMKGERRRGKGHDGLYQGLSTATKDTYDALHMQALPPR
modifications: expressed in CAR T cells; GPC2-CD28z
- long term persistence and CAR T cells expansion (SH-SY5Y [3]; serial SH-SY5Y challenge without IL-2, FIG. 14A and 14C): comparable level of long term persistence and CAR T cells expansion
- CAR positive T cells percentage (SH-SY5Y [3]): expanded and reaching a peak level
- IFNγ production against SH-SY5Y (SH-SY5Y [1]; GPC2 CAR Ts with different co-stimulatory domains, FIG. 13B): higher level of IFNγ production

B5: CAS72052VH5-BBz: humanized VHH anti-GPC2 CAR (4-1BB, CD3ζ), SEQ ID NO: 224; tested as CAR T cells (protein)
chain: MALPVTALLLPLALLLHAARPQVQLVESGGGVVQPGGSLRLSCAVSGFRYASYCMGWFRQAPGKGLEGVAAIHSDGIIRYAESVKGRFTISKDNSKNTLYLQMNSLRAEDTAVYYCAAGAYCGADAILTLYDYAFWGQGTLVTVSSTTTPAPRPPTPAPTIASQPLSLRPEACRPAAGGAVHTRGLDFACDIYIWAPLAGTCGVLLLSLVITLYCKRGRKKLLYIFKQPFMRPVQTTQEEDGCSCRFPEEEEGGCELRVKFSRSADAPAYKQGQNQLYNELNLGRREEYDVLDKRRGRDPEMGGKPRRKNPQEGLYNELQKDKMAEAYSEIGMKGERRRGKGHDGLYQGLSTATKDTYDALHMQALPPR
modifications: expressed in CAR T cells; CAS72052VH5-BBz
- IFNγ release (IMR-32): high levels of IFNγ
- IFNγ release (SH-SY5Y [1]): high levels of IFNγ

B6: GPC2-ICOSz: SEQ ID NO:250, GPC2 CAR T comprised ICOS and CD3 ζ intracellular signaling domains (protein)
chain: MALPVTALLLPLALLLHAARPEVQLVESGGGLVQPGGSLRLSCAISEFTYKNTCVGWFRQAPGKGREGVAAIDSDGNTNYVDSVKGRFTISQDNSKNTVYLQMNSLRAEDTAMYYCAAGAYCGRLLLWIGNYAYWGQGTLVTVSSTTTPAPRPPTPAPTIASQPLSLRPEACRPAAGGAVHTRGLDFACDFWLPIGCAAFVVVCILGCILICWLTKKKYSSSVHDPNGEYMFMRAVNTAKKSRLTDVTLRVKFSRSADAPAYKQGQNQLYNELNLGRREEYDVLDKRRGRDPEMGGKPRRKNPQEGLYNELQKDKMAEAYSEIGMKGERRRGKGHDGLYQGLSTATKDTYDALHMQALPPR
modifications: expressed in CAR T cells; GPC2-ICOSz
- CAR positive T cells percentage (SH-SY5Y [3]): gradual decline

B7: GPC2-CD2z: SEQ ID NO:251, GPC2 CAR T comprised CD2 and CD3 ζ intracellular signaling domains (protein)
chain: MALPVTALLLPLALLLHAARPEVQLVESGGGLVQPGGSLRLSCAISEFTYKNTCVGWFRQAPGKGREGVAAIDSDGNTNYVDSVKGRFTISQDNSKNTVYLQMNSLRAEDTAMYYCAAGAYCGRLLLWIGNYAYWGQGTLVTVSSTTTPAPRPPTPAPTIASQPLSLRPEACRPAAGGAVHTRGLDFACDIYLIIGICGGGSLLMVFVALLVFYITKRKKQRSRRNDEELETRAHRVATEERGRKPHQIPASTPQNPATSQHPPPPPGHRSQAPSHRPPPPGHRVQHQPQKRPPAPSGTQVHQQKGPPLPRPRVQPKPPHGAAENSLSPSSNRVKFSRSADAPAYKQGQNQLYNELNLGRREEYDVLDKRRGRDPEMGGKPRRKNPQEGLYNELQKDKMAEAYSEIGMKGERRRGKGHDGLYQGLSTATKDTYDALHMQALPPR
modifications: expressed in CAR T cells; GPC2-CD2z
- CAR positive T cells percentage (SH-SY5Y [3]): gradual decline
